In assay [1] the target is SARS-2^hg monomer (hyperglycosylated SARS-2 RBD) (SARS-CoV-2 (engineered)) (UniProt P0DTC2).
Assay [2] concerns the target rsYNLF-34C (v2 resurfaced YNLF_34C RBD carrying SARS-2 residues 401-507) (bat sarbecovirus YNLF_34C; SARS-CoV-2).
For assay [3], the target named is SARS-2^hg monomer (hyperglycosylated SARS-2 RBD) (SARS-CoV-2 (engineered)) (UniProt P0DTC2). The assay is described as follows: BLI, Fab on FAB2G sensor, hyperglycosylated construct as analyte.

Regarding B38 Fab, the values for the Kd in assay [1] and in assay [2] were 2100 nM and 1400 nM, respectively. The substance also had a fold decrease in affinity for B38 in assay [3] of 2 fold.

The record behind these values is patent publication US20250032605A1.
